Assay results as given in US20250325718A1, “IMMUNOCONJUGATES COMPRISING KALLIKREIN RELATED PEPTIDASE 2 ANTIGEN BINDING DOMAINS AND THEIR USES” (Janssen Biotech, Inc., priority 2021, published 2025).

Tests used:
[1] = Thermal stability by Differential Scanning Fluorimetry (NanoDSF); assay type: physicochemical; conditions: 0.5 mg/mL in Phosphate Buffered Saline pH 7.4, 20-95 ° C. at 1.0 ° C./minute
Protocol: Thermal stability was determined by Differential Scanning Fluorimetry (NanoDSF) using an automated Prometheus instrument. NanoDSF was used to measure Tm of molecules at a concentration of 0.5 mg/mL in Phosphate Buffered Saline, pH 7.4. Measurements were made by loading samples into 24 well capillary from a 384 well sample plate. Duplicate runs were performed for each sample. The thermal scans span from 20° C., to 95° C. at a rate of 1.0° C./minute. Intrinsic tryptophan and tyrosine fluorescence were monitored at the emission wavelengths of 330 nm and 350 nm, and the F350/F330 nm ratio were plotted against temperature to generate unfolding curves.

soluble hK2 = soluble hK2 (Homo sapiens, UniProt P20151); experiment: Affinity of hK2 antibodies for soluble hK2 by surface plasmon resonance (SPR); assay type: binding; conditions: antibody captured on anti-Fc chip, soluble hK2 injected, 1:1 Langmuir fit, KD = koff/kon
soluble hK2, sequence (P20151 25-261): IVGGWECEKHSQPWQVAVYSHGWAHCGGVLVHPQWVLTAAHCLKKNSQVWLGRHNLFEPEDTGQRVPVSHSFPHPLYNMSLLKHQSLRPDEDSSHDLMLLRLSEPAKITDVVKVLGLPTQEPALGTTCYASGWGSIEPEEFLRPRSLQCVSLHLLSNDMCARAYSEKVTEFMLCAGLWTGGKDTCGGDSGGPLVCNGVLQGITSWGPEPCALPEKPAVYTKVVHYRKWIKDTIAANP
Protocol: Affinity of selected hK2 antibodies for soluble hK2 was measured by surface plasmon resonance (SPR). SPR is a label-free technique to study the strength of an interaction between two binding partners by measuring the change in mass upon complex formation and dissociation. Antibodies were captured on a sensor chip coated with an anti-Fc antibody followed by injection of soluble hK2 at various concentrations and specified association and dissociation times. Post dissociation, the surface was regenerated with an appropriate solution to prepare for the next interaction. Kinetic information (on-rate and off-rate constants) were extracted by fitting sensorgrams to the 1:1 Langmuir model. Binding affinity (KD) are reported as the ratio of rate constants (koff/kon).

hK2-positive VCaP cells = experiment: Target cell binding by flow cytometry, hK2-positive cells; assay type: cell-based; conditions: 4° C. 60 minutes, anti-Human F(ab′)2 secondary detection, live cells
Source text: To evaluate target cell binding of the KL2B30 Fab with different conjugation variants, VCaP cells were used as hK2-positive target cells and DU145 cells were used as hK2-negative cells. KL2B30 parental antibody (comprising a heavy chain and light chain of SEQ ID NO: 210 and SEQ ID NO: 221, respectively) and hul1B6 (an anti-hK2 antibody, also referred to herein as h11B6, comprising a heavy chain and light chain of SEQ ID NO: 203 and SEQ ID NO: 215, respectively) were included as positive controls. The h11B6 antibody is described in U.S. Pat. No. 10,100,125, which is incorporated by reference herein. An anti-Human F(ab′)2 fragment specific secondary detection antibody was used for detecting Fab-based binding. Test antibodies were incubated with target cells at 4° C. for 60 minutes and detected by secondary staining. Cell binding was quantified by flow cytometry based on secondary antibody binding signal and gated from on live cells.

Row | Molecule | Tm (° C.) [1] [°C] | other results
1 | KL2B53 (Fab): anti-hK2 antibody; VH SEQ ID NO: 164, VL SEQ ID NO: 165 (antibody, V domains shown) VH: EVQLVESGGGVVQPGRSLRLSCVASGFTFSSYDIHWVRQAPGKGLEWVAIISYDGSKKDYTDSVKGRFTISRDNSKNTLYLQMDSLRVEDSAVYSCARESGWSHYYYYGMDVWGQGTMVTVSS VL: DIVMTQSPSSLSASVGDRVTITCRASQDISNYLAWYQQKPGKVPKFLIYAASTLHSGVPSRFSGSGSGTDFTLTISSLQPEDVATYYCQKYNSAPYTFGQGTRLEIK | >70 | 
2 | KL2B413 (scFv-LH-Fc): anti-hK2 antibody from Ablexis mice immunization; VH SEQ ID NO: 137, VL SEQ ID NO: 138 (protein) chain 1: EVQLVESGGGLVQPGGSLRLSCAASGFTFSSYWMTWVRQAPGKGLEWVANIKQDGSERYYVDSVKGRFTISRDNAKNSLYLQMNSLRAEDTAVYYCARDQNYDILTGHYGMDVWGQGTTVTVSS chain 2: EIVLTQSPSFLSASVGDRVTITCRASQGISSYLSWYQQKPGKAPKLLIYATSTLQSGVPSRFSGSGSGTEFTLTISSLQPEDFATYYCQQLNSYPRTFGQGTKVEIK |  | Kd (soluble hK2): 34.3 nM; Kd (soluble hK2; listed as KL2B413 scFv): ~34 nM
3 | KL2B997 SORT: KL2B997 site-specific ADC prepared via the sortase tag with Gly3-vcMMAF (conjugate, left off: a dimerising Fc or GST; large carriers, KL2B997 site-specific ADC prepared via the sortase tag with Gly3-vcMMAF) heavy: QVQLQESGPGLVKPSETLSLTCTVSGGSISSYYWSWIRQPPGKGLEWIGYIYYSGSTNYNPSLKSRVTISVDTSKNQFSLKLSSVTAADTAVYYCAGTTIFGVVTPNFYYGMDVWGQGTTVTVSS light: DIQMTQSPSFLSASVGDRVTITCRASQGISSYLAWYQQKPGKAPKFLIYAASTLQSGVPSRFSGSGSGTEFTLTISSLQPEDFATYYCQQLNSYPLTFGGGTKVEIK |  | cell binding to hK2-positive VCaP cells (hK2-positive VCaP cells): positive and dose-dependent cell binding
4 | KL2B467 (Fab): anti-hK2 antibody from OmniRat immunization; VH SEQ ID NO: 168, VL SEQ ID NO: 169 (antibody, V domains shown) VH: QVQLVESGGGVVQPGRSLRLSCAASGFTFSYYGMHWVRQAPGKGLEWVAFISYDGSNKYYADSVKGRFTISRDNSKNTLYLQMNSLRAEDTAVYYCAHLPYSGSYWAFDYWGQGTQVTVSS VL: QSVLTQPPSVSVAPGQTASITCGGDNIGSKSVHWYQQKPGQAPVLVVYDNSDRPSGIPERFSGSNSGTTATLTISRVEAGDEADYYCQVWDSSSDHPVVFGGGTKVTV | >70 | 
5 | KL2B359 (scFv-LH-Fc): anti-hK2 clone from the re-humanization campaign of 11B6; VH SEQ ID NO: 139, VL SEQ ID NO: 140 (protein, left off: a dimerising Fc or GST; small tags and cut ends) scFv: EIVLTQSPATLSLSPGERATLSCRASESVEYFGTSLMHWYQQKPGQPPRLLIYAASNVESGIPARFSGSGSGTDFTLTISSVEPEDFAVYFCQQTRKVPYTFGGGTKVEIKGGSEGKSSGSGSESKSTGGSQVQLQESGPGLVKPSQTLSLTCTVSGNSITSDYAWNWIRQFPGKRLEWIGYISYSGSTTYNPSLKSRVTISRDTSKNQFSLKLSSVTAADTAVYYCATGYYYGSGFWGQGTLVTVSS | 67 | 
6 | KL2B242 (Fab): anti-hK2 antibody; VH SEQ ID NO: 166, VL SEQ ID NO: 167 (antibody, V domains shown) VH: QVQLQESGPGLVKPSETLSLTCTVSGGSISSYYWSWLRQPAGSGLEWIGRLYVSGFTNYNPSLKSRVTLSLDPSRNQLSLKLSSVTAADTAVYYCAGDSGNYWGWFDPWGQGTLVTVSS VL: SYELTQPPSVSVSPGETASITCSGDQLGENYACWYQQKPGQSPVLVIYQDSKRPSGIPERFSGSNSGNTATLTISGTQALDEADYYCQAWDNSIVVFGGGTKLTVL | >70 | 
